Common to all, as to experiment: fluorescence polarization
Holding throughout (conditions): FP: 10 nM Cy5 nucleosome in Buffer B (composition not in material) except 60 mM NaCl, quadratic fit, EMSA: 15 nM nucleosome, 15 min, room …
Background: In fluorescence polarisation assays a small probe gives low polarisation when free and higher when bound to something large.

The test system of data set [1] is PBAF (human).
Data set [2] concerns cBAF (ARID1A) (human).
The subject of data set [3] is BRG1 (human).
Data set [4] concerns ncBAF (human).

This is an account of results in publication PMC12476982.

Broadly, the Kd is the equilibrium constant for the complex coming apart. Low values mean higher affinity, high ones lower affinity.

Take Cy5 mononucleosome, 197-bp 601 DNA: the dissociation constant (Kd) in data set [1] amounted to 82 nM; in data set [2] it was 45 nM; in data set [3] it was 115 nM; in data set [4], 17 nM.
